US20220406376A1 (MacroGenics, published 2022)

B1: hCD137 MAB-3 (1B.4) (antibody, V domains shown)
VH: QVQLVQSGAEVKKPGASVKVSCKASGYTFTSYWINWVKQAPGQGLEWIGNIYPSDSYTNYNQKFKDKATITADKSTSTAYMELSSLRSEDTAVYYCTRDYGSAYSMSTWGQGTTVTVSS
VL: DIQMTQSPSSLSASVGDRVTITCQASQDISNYLNWYQQKPDKTVKLLIYYTSRLRSGVPSRFSGSGSGTDFTFTISSLQPEDIATYFCQQGDTLPYTFGQGTKLEIK
B2: hCD137 MAB-3 (1B.11) (antibody, V domains shown)
VH: QVQLVQSGAEVKKPGASVKVSCKASGYTFTSYWINWVKQAPGQGLEWIGNIYPSDSYTNYNQKFKDKATITADKSTSTAYMELSSLRSEDTAVYYCTRDYGSAYSMSTWGQGTTVTVSS
VL: DIQMTQSPSSLSASVGDRVTITCRPSQDISNYLNWYQQKPDKTVKLLIYYTGRLRSGVPSRFSGSGSGTDFTFTISSLQPEDIATYFCQQGDTLPYTFGQGTKLEIK
B3: hCD137 MAB-3 (1F.3) (antibody, V domains shown)
VH: QVQLVQSGAEVKKPGASVKVSCKASGYTFTSYWINWVKQAPGQGLEWAGNIYPSDSYTNYNQKFKDKATITADKSTSTAYMELSSLRSEDTAVYYCTRDYGSAYSMSTWGQGTTVTVSS
VL: DIQMTQSPSSLSASVGDRVTITCRPSQDISNYLNWYQQKPDKTVKLLIYYTSRLRSGVPSRFSGSGSGTDFTFTISSLQPEDIATYFCQQGDTLPYTFGQGTKLEIK
B4: hCD137 MAB-3 (1G.14) (antibody, V domains shown)
VH: QVQLVQSGAEVKKPGASVKVSCKASGYTFTSYWINWVRQAPGQGLEWAGNIYPSDSYTNYNQKFKDKATITADKSTSTAYMELSSLRSEDTAVYYCTRDYGSAYSMSTWGQGTTVTVSS
VL: DIQMTQSPSSLSASVGDRVTITCQASQDISNYLNWYQQKPDKTVKLLIYYTTRARSGVPSRFSGSGSGTDFTFTISSLQPEDIATYFCQQGDTLPYTFGQGTKLEIK
B5: hCD137 MAB-3 (1G.8) (antibody, V domains shown)
VH: QVQLVQSGAEVKKPGASVKVSCKASGYTFTSYWINWVRQAPGQGLEWAGNIYPSDSYTNYNQKFKDKATITADKSTSTAYMELSSLRSEDTAVYYCTRDYGSAYSMSTWGQGTTVTVSS
VL: DIQMTQSPSSLSASVGDRVTITCQASQDISNYLNWYQQKPDKTAKLLIYYTSRARSGVPSRFSGSGSGTDFTFTISSLQPEDIATYFCQQGDTLPYTFGQGTKLEIK
B6: hCD137 MAB-3 (1B.6) (antibody, V domains shown)
VH: QVQLVQSGAEVKKPGASVKVSCKASGYTFTSYWINWVKQAPGQGLEWIGNIYPSDSYTNYNQKFKDKATITADKSTSTAYMELSSLRSEDTAVYYCTRDYGSAYSMSTWGQGTTVTVSS
VL: DIQMTQSPSSLSASVGDRVTITCRPSQDISNYLNWYQQKPDKTVKLLIYYTSRARSGVPSRFSGSGSGTDFTFTISSLQPEDIATYFCQQGDTLPYTFGQGTKLEIK
B7: hCD137 MAB-3 (1E.14) (antibody, V domains shown)
VH: QVQLVQSGAEVKKPGASVKVSCKASGYTFTSYWINWVRQAPGQGLEWIGNIYPSDSYTNYNQKFKDKATITADKSTSTAYMELSSLRSEDTAVYYCTRDYGSAYSMSTWGQGTTVTVSS
VL: DIQMTQSPSSLSASVGDRVTITCQASQDISNYLNWYQQKPDKTVKLLIYYTTRARSGVPSRFSGSGSGTDFTFTISSLQPEDIATYFCQQGDTLPYTFGQGTKLEIK
B8: hCD137 MAB-3 (1E.9) (antibody, V domains shown)
VH: QVQLVQSGAEVKKPGASVKVSCKASGYTFTSYWINWVRQAPGQGLEWIGNIYPSDSYTNYNQKFKDKATITADKSTSTAYMELSSLRSEDTAVYYCTRDYGSAYSMSTWGQGTTVTVSS
VL: DIQMTQSPSSLSASVGDRVTITCQASQDISNYLNWYQQKPDKTVKLLIYYTSRARSGVPSRFSGSGSGTDFTFTISSLQPEDIATYFCQQGDTLPYTFGQGTKLEIK

The binders below were run against T1, extracellular portion of human CD137 fused to a histidine-containing peptide (human, UniProt Q07011 24-186) (assay: Attana Cell A200 QCM; antibody captured by anti-human IgG Fc; soluble human CD137-His; grade relative to (1B.3)).
T1 construct: extracellular domain; also called huCD137; His-tagged soluble human CD137

Binding result, binds:
B1
B2
B3
B4
B5
B6
B7
B8
